Experimental findings from paper PMC10592472 (Cell reports, 2023) are described below.

For test [1], the target named is LFA1 (αLβ2) (mouse (endogenous in primary T cells)) (UniProt P24063). Kind of test: single-molecule imaging.
Test [2] has the same target. Kind of test: single-molecule imaging. The source holds these as a separate data set.
The target of a further test is LFA1 (αLβ2) (mouse (endogenous in primary T cells), UniProt P24063 24-1162; P11835 24-771). Kind of test: flow cytometry on cells. In general terms: In flow cytometry, cells or beads pass a laser one at a time.

Where two headings read alike, the source gives them in different places.

Chain of LFA1 (αLβ2) (mouse (endogenous in primary T cells)) (P24063 24-1162, chain 1 of 2): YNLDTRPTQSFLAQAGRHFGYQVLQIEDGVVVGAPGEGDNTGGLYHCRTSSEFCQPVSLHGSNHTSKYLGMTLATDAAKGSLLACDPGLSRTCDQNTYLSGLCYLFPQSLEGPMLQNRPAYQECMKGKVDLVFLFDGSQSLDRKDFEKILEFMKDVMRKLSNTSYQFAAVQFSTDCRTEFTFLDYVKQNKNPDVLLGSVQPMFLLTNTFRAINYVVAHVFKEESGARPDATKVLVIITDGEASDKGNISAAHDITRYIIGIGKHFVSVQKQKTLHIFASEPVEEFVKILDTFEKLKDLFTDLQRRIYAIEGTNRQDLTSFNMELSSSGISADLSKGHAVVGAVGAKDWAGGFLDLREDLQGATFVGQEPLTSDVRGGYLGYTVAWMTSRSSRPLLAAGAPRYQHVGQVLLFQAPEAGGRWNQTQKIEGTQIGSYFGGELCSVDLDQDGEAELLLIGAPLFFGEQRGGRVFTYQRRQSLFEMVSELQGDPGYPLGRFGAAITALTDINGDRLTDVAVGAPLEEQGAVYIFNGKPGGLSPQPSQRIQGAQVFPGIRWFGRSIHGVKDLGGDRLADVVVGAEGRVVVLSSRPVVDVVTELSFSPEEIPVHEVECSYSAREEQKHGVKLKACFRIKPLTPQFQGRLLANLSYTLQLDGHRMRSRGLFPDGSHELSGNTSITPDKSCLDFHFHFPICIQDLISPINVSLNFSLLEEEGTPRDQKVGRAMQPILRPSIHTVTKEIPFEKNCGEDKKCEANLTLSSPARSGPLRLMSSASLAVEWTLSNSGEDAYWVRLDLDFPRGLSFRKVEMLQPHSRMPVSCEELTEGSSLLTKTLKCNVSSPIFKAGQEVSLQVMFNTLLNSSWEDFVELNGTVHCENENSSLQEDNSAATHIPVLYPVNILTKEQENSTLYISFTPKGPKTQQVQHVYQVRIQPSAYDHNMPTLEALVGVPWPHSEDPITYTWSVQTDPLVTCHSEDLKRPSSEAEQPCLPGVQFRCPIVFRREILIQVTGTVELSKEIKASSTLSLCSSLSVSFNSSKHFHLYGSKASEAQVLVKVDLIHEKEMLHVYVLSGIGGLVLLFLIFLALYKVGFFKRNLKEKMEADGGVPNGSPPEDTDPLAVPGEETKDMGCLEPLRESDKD
Chain of LFA1 (αLβ2) (mouse (endogenous in primary T cells)) (P11835 24-771, chain 2 of 2, further chain): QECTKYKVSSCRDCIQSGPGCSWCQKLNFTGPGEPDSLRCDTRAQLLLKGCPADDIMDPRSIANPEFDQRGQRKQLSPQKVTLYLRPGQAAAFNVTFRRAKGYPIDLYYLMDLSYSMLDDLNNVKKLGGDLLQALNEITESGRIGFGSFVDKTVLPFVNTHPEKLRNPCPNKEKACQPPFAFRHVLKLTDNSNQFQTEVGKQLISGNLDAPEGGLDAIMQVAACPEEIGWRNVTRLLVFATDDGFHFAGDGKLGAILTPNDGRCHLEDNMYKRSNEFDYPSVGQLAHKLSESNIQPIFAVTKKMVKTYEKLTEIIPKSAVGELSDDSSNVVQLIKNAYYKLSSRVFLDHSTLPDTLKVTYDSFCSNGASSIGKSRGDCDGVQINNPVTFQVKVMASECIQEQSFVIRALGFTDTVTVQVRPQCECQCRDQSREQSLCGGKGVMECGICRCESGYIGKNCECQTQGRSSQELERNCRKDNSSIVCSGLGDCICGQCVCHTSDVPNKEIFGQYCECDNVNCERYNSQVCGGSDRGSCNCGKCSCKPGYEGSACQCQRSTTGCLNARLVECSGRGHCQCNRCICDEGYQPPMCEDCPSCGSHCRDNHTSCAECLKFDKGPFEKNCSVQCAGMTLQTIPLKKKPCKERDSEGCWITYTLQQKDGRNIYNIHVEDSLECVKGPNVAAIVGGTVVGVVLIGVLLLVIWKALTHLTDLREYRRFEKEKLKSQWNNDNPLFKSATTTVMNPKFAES
Chain of LFA1 (αLβ2) (P24063 24-1162, chain 1 of 2): as the sequence (P24063 24-1162, chain 1 of 2) above
Chain of LFA1 (αLβ2) (P11835 24-771, chain 2 of 2): as the sequence (P11835 24-771, chain 2 of 2, further chain) above

Consider “mouse ICAM1-GPI (from UniProt P13597 28-537) (ligand)”, for which the results for the koff in test [1] and in test [2] were 0.398 s⁻¹ and 0.03 s⁻¹, respectively.

B1: Mouse ICAM1-Fc (Fc fusion, UniProt P13597 28-485, looked up)
chain: QVSIHPREAFLPQGGSVQVNCSSSCKEDLSLGLETQWLKDELESGPNWKLFELSEIGEDSSPLCFENCGTVQSSASATITVYSFPESVELRPLPAWQQVGKDLTLRCHVDGGAPRTQLSAVLLRGEEILSRQPVGGHPKDPKEITFTVLASRGDHGANFSCRTELDLRPQGLALFSNVSEARSLRTFDLPATIPKLDTPDLLEVGTQQKLFCSLEGLFPASEARIYLELGGQMPTQESTNSSDSVSATALVEVTEEFDRTLPLRCVLELADQILETQRTLTVYNFSAPVLTLSQLEVSEGSQVTVKCEAHSGSKVVLLSGVEPRPPTPQVQFTLNASSEDHKRSFFCSAALEVAGKFLFKNQTLELHVLYGPRLDETDCLGNWTWQEGSQQTLKCQAWGNPSPKMTCRRKADGALLPIGVVKSVKQEMNGTYVCHAFSSHGNVTRNVYLTVLYHSQNN
As to B1, the “fold binding against WT T cells (Rasa3/Sipa1-KO T cells, Mn2+)” value with LFA1 (αLβ2) turned out to be 2 fold.

By koff is commonly meant the rate constant with which the complex falls apart. A low value points to a long-lived complex.
